B1: SEQID-00574: protein of the 168 nutritive polypeptide library (protein, listed as Lactobacillus acidophilus)
chain: MPTINQLVRKGRHSKVTKSKSPALNYSYNSMKKESVFNPAPQMRGVATRVGTMTPKKPNSALRKYARVRLSNLIEVTAYIPGEGHNLQEHSVVLIRGGRVKDLPGVRYHIVRGALDTAGVDGRKQSRSKYGAKKD
modifications: source: /note="strain 30SC"
notes: protein of the 168 nutritive polypeptide library
B2: SEQID-00562: protein of the 168 nutritive polypeptide library (protein, listed as Lactobacillus acidophilus)
chain: MKKFASFVLGAVAGCAAGFLAGSLLVSDEQVDDVKNKIKDNDKLQDLKKKYDNGTEIVKNQLASFPKNVEDDSELKDFDDIVIDDSNKDDDVTAGDNAQESVDDLNNAEEEHNAEDAEEDKPEA
modifications: source: /note="strain 30SC"
notes: as for B1
B3: SEQID-00536: protein of the 168 nutritive polypeptide library (protein, listed as Solanum lycopersicum)
chain: MEEEKHHHHHLFHHKDKAEEGPVDYEKEIKHHKHLEQIGKLGTVAAGAYALHEKHEAKKDPEHAHKHKIEEEIAAAAAVGAGGFAFHEHHEKKDAKKEEKKAEGGHHHLF
B4: SEQID-00592: protein of the 168 nutritive polypeptide library (protein)
chain: MAQTVVLKVGMSCEGCVGAVKRVLGKMEGVESYDVDIMEQKVTVKGNVTPDAVLQTVSKTGKKTSFWEAEAVTSESATPAGATA
modifications: Zea mays
notes: as for B1
B5: SEQID-00552: protein of the 168 nutritive polypeptide library (protein, listed as Saccharomyces cerevisiae)
chain: MSNMMNKFAEKLQGNDDSHQKGKNAKSSNKERDDMNMDMGMGHDQSEGGMKMGHDQSGTKMNAGRGIANDWKTYENMKK
modifications: source: /note="strain ATCC 204508 / S288c"
notes: as for B1
B6: SEQID-00545: protein of the 168 nutritive polypeptide library (protein, listed as Saccharomyces cerevisiae)
chain: MLSRAIFRNPVINRTLLRARPGAYHATRLTKNTFIQSRKYSDAHDEETFEEFTARYEKEFDEAYDLFEVQRVLNNCFSYDLVPAPAVIEKALRAARRVNDLPTAIRVFEALKYKVENEDQYKAYLDELKDVRQELGVPLKEELFPSSS
modifications: source: /note="strain ATCC 204508 / S288c"
notes: as for B1
B7: SEQID-00581: protein of the 168 nutritive polypeptide library (protein)
chain: MPKRQRKLAPPRGYKMHVKKGDTVQVIAGRDKGKVGEVISTLPKLSKVVVRDVNVRTKHVKPQQEGEGGRIVNFEAPIHSSNVMLYSTKEKVASRVSYTFTEDGRKVRMLKKTGEVID
modifications: Arthrospira platensis NIES-39
notes: as for B1
B8: SEQID-00544: protein of the 168 nutritive polypeptide library (protein, listed as Gadus morhua)
chain: MGTRLHQTNTMKFAALALALLLAVGSHAAAMQSDAPSQLAHIRSAVGMYLDQVKDSAARSLDHLDGTEYESYKAQLATSLDSLQASIKTAQAGAEPYTDAAVAQVMEATTEVRASIMADIETLRTGPGPKREALKKVVDGHI
B9: SEQID-00590: protein of the 168 nutritive polypeptide library (protein, listed as Lactobacillus acidophilus)
chain: MANKAELVSEVASKTKLTKKEVAAAVDAIFGSIQDNLAKGEKVQLIGFGTFEVRHRAARKGRNPQTGDEIEIPASEVPAFKPGKALKEAVK
modifications: source: /note="strain 30SC"
notes: as for B1
B10: SEQID-00570: protein of the 168 nutritive polypeptide library (protein, listed as Saccharomyces cerevisiae)
chain: MFLRNSVLRTAPVLRRGITTLTPVSTKLAPPAAASYSQAMKANNFVYVSGQIPYTPDNKPVQGSISEKAEQVFQNVKNILAESNSSLDNIVKVNVFLADMKNFAEFNSVYAKHFHTHKPARSCVGVASLPLNVDLEMEVIAVEKN
modifications: source: /note="strain ATCC 204508 / S288c"
notes: as for B1
B11: SEQID-00541: protein of the 168 nutritive polypeptide library (protein, listed as Agaricus bisporus)
chain: MVRISVLNDCLKSICNASRRGKRQVIVRPSSKVVVKFLSVMQRHGYIGEFEIIDDHRGGKIIVQLNGRLNKTGVISPRFNVQHNRIEQWINYLLPSRGIGIIVLTTSSGILDHEEARRKNVGGKLLGYVY
modifications: source: /note="var. bisporus"; source: /note="strain H97 / ATCC MYA-4626 / FGSC 10389"
notes: as for B1
B12: SEQID-00599: protein of the 168 nutritive polypeptide library (protein, listed as Agaricus bisporus)
chain: MSESLRYLGSLEGHKGWVTAIATSSENPDMILTASRDKTIIVWQLTREDDSYGYPKRILHGHNHFVSDVVISSDGQFALSSSWDHTLRLWDLNTGVTTRRFVGHSSDVLSVSFSADNRQIVSGSRDRTIKLWNTLGECKFDIKEDGHSEWVSCVRFSPNVANPVIVSAGWDKVVKVWELSKFKLKTNHYGHTGYINTVSVSPDGSLAASGGKDGITMLWDLNEGKHLYSLEAGDVVNALVFSPNRYWLCAATASCVKIFDLESKSIVDELKPTYTDVGEDARQPECVSIAWSADGQTLFTGYTDNAVRVWIVTS
modifications: source: /note="var. bisporus"; source: /note="strain H97 / ATCC MYA-4626 / FGSC 10389"
notes: as for B1
B13: SEQID-00564: protein of the 168 nutritive polypeptide library (protein)
chain: MAPKAEKKPAAKKPAEEEPAAPAEKAPAGKKPDLIKRLPAGKSAGKEGGVDKKGRKKAKKSVETYKIYIFKVLKQVHPDIGISSKAMSIMNSFINDIFEKLAGEAAKLARYNKKPTITSREIQTSVRLVLPGELAKHAVSEGTKAVTKFTSS
modifications: Zea mays
notes: as for B1
B14: SEQID-00555: protein of the 168 nutritive polypeptide library (protein)
chain: MQAQEIIRAIEQEEIESVKTNVQKESIPKIYVGDTVKVGVRITEGGKERIQPYQGTVIAMRNGGINETITVRRIFQGVGVERVFLLHSPRIASIKVIMRGKVRRAKLYYLRDRVGKATRVPQRFDRPL
modifications: Arthrospira platensis NIES-39
notes: as for B1
B15: SEQID-00573: protein of the 168 nutritive polypeptide library (protein, listed as Cicer arietinum)
chain: MAPAKAEKKPAEKKPAAEKAPAEKKPKAEKKISKEGTSDKKKKRVKKSVETYKIYIFKVLKQVHPDIGISSKAMGIMNSFINDIFEKLAQEASRLARYNKKPTITSREIQTAVRLVLPGELAKHAVSEGTKAVTKFTSS
B16: SEQID-00591: protein of the 168 nutritive polypeptide library (protein, listed as Saccharomyces cerevisiae)
chain: MLNRCISRNTRLPVNLRIASRFYSDGPLGGAGPGNPQDIFIKRERAKEDYYARQQEREQLAHVKEQLKEHKKKLENLENKINNLSK
modifications: source: /note="strain ATCC 204508 / S288c"
notes: as for B1
B17: SEQID-00540: protein of the 168 nutritive polypeptide library (protein)
chain: MARIAGVDLPRDKRVEIGLTYIYGIGLSRSKEILAETGVNPDTRVKDLTDADVAALRSVIQTNYQVEGDLRRLEAMSIKRLMDIGTYRGRRHRMGLPVRGQRTRTNARTRRGVRRTVAGKKKAASKK
modifications: Arthrospira platensis C1
notes: as for B1

Test: SGF digest of 168 nutritive polypeptide library, intact protein by LC-MS/MS
Assay type: in vitro ADME
Conditions: 168 nutritive polypeptide library SGF digest, LC-MS/MS spectral counts
Description: The in vitro intact half-life of multiple polypeptides in a complex mixture was determined using the simulated gastric in vitro digestion described above. Briefly, the 168 nutritive polypeptide library was generated as described herein by cloning, transforming, and expressing a gene library encoding 168 proteins as a single mixture. The recombinantly expressed proteins were purified from host cell proteins by IMAC purification as described herein.
The 168 Protein Library was treated with SGF as described above and the t=0 and t=10 min samples were analyzed for intact protein by LC-MS/MS. To begin, 10 μg of sample was loaded onto a 10% SDS-PAGE gel (Invitrogen) and run approximately 5 cm into the gel. The gel was excised into ten fractions from 100 kD to the dye front and the gel slices were processed by washing with 25 mM ammonium bicarbonate, followed by acetonitrile. Gel fractions were then reduced with 10 mM dithiothreitol at 60° C., followed by alkylation with 50 mM iodoacetamide at room temperature. Finally, the samples were digested with trypsin (Promega) at 37° C. for 4 h and the digestions were quenched with the addition of formic acid. The samples were then analyzed by nano LC/MS/MS using an EasynLC 1000 HPLC system interfaced to a ThermoFisher Q Exactive. Peptides were loaded on a trapping column and eluted over a 75 μm analytical column at 350 nL/min; both columns were packed with PepMap C18 3 μm resin (ThemoFisher). A 1 hour gradient was employed. The mass spectrometer was operated in data-dependent mode, with MS and MS/MS performed in the Orbitrap at 70,000 FWHM resolution and 17,500 FWHM resolution, respectively. The fifteen most abundant ions were selected for MS/MS. Data were searched against an appropriate database using Mascot to identify peptides. Mascot DAT files were parsed into the Scaffold software for validation, filtering and to create a nonredundant list per sample. Data were filtered at 1% protein and peptide false discovery rate (FDR) and requiring at least two unique peptides per protein. A full list of detected proteins and their spectral counts (SpC) was generated and reported as a function of each collected gel fraction. SpC are a count of the number of spectra identified for a given protein and are used as a measure of relative protein abundance (Liu, H. et al., Analytical Chemistry 2004, 76: 4193-4201). To calculate the percentage of intact protein remaining at the 10 min time point of the SGF digest the number of SpC representative of intact peptide in the t=10 min sample were divided by the number of SpC representative of intact peptide in the t=0 min sample. The number of SpC representative of intact peptide was defined as the sum of the SpC in the fraction with the highest number of SpC assigned to that protein in the t=0 min sample and the two flanking fractions.

B1 and B2 are the same in “% Intact Protein at 10 min” value: 0% for the first, 0% for the second.

First: B3
Second: B4
The “% Intact Protein at 10 min” value of the first is lower: 11.8% for the first, 24.3% for the second.

First: B5
Second: B6
The “% Intact Protein at 10 min” value of the first is higher: 79% for the first, 0% for the second.

Going from B7 to B8, the “% Intact Protein at 10 min” value falls from 33.3% to 0%.

Going from B9 to B10, the “% Intact Protein at 10 min” value rises from 0% to 91.4%.

B11 and B12 are the same in “% Intact Protein at 10 min” value: 0% for the first, 0% for the second.

First: B13
Second: B14
The “% Intact Protein at 10 min” value of the first is higher: 89.6% for the first, 6.8% for the second.

Compared with B15, B16 is lower in “% Intact Protein at 10 min” value: 66.7% for the first, 20% for the second.

With B17 the “% Intact Protein at 10 min” value was 0%.

Reference: patent US20160228506A1, “Compositions and Formulations for Prevention and Reduction of Tumorigenesis, Cancer Cell Proliferation and Invasion, and Methods of Production and Use Thereof in Cancer Treatment” (PRONUTRIA, INC., priority 2013, published 2016)
